Measured values published in patent publication US20240158538A1 (HUMMINGBIRD BIOSCIENCE HOLDINGS PTE, published 2024).
Like-named read-outs stand apart in the source and are kept apart here.

Key:
[1] = target: T1, PD-1 (ELISA coat) (human, UniProt Q15116 25-167, limits assumed); assay: ELISA, plate coated with PD1
T1 construct: Species read from the list 'human VISTA, PD-1, PD-L1, ...'

[2] = target: T2, B7H3 (ELISA coat) (human, UniProt Q5ZPR3 29-461, limits assumed); assay: ELISA, plate coated with B7H3
T2 construct: Species read from the list 'human VISTA, PD-1, PD-L1, ...'; also called CD276
T2 sequence (looked up): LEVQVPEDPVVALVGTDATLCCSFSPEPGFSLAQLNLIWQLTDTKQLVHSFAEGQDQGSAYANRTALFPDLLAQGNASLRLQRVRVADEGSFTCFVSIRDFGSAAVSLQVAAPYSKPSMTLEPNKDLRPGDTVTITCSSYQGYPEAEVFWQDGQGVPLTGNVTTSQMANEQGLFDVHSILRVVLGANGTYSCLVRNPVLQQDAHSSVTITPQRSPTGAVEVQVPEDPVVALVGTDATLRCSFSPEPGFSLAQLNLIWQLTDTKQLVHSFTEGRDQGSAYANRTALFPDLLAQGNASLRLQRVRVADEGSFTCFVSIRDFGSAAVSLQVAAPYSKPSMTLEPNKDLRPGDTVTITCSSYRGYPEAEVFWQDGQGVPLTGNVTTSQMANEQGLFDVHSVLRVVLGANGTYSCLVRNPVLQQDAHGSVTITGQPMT

[3] = target: T3, B7H4 (ELISA coat) (human, UniProt Q7Z7D3 25-258, limits assumed); assay: ELISA, plate coated with B7H4
T3 construct: Species read from the list 'human VISTA, PD-1, PD-L1, ...'; also called VTCN1
T3 sequence (looked up): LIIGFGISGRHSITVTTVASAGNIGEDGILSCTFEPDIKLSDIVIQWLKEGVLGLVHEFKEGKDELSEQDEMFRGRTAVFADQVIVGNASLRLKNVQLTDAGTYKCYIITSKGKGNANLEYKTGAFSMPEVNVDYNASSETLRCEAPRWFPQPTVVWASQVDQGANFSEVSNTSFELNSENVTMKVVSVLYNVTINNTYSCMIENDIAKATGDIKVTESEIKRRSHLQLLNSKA

[4] = target: T4, B7H6 (ELISA coat) (human, UniProt Q68D85 25-262, limits assumed); assay: ELISA, plate coated with B7H6
T4 construct: Species read from the list 'human VISTA, PD-1, PD-L1, ...'; also called NCR3LG1
T4 sequence (looked up): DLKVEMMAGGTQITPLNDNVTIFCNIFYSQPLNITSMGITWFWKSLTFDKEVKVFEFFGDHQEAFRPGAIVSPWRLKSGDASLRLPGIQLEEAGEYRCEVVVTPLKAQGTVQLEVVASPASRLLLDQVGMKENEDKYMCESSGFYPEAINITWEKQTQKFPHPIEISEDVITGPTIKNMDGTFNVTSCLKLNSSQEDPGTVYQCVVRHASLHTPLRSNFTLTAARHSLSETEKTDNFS

[5] = target: T5, B7H7 (ELISA coat) (human, UniProt Q9UM44 23-344, limits assumed); assay: ELISA, plate coated with B7H7
T5 construct: Species read from the list 'human VISTA, PD-1, PD-L1, ...'; also called HHLA2
T5 sequence (looked up): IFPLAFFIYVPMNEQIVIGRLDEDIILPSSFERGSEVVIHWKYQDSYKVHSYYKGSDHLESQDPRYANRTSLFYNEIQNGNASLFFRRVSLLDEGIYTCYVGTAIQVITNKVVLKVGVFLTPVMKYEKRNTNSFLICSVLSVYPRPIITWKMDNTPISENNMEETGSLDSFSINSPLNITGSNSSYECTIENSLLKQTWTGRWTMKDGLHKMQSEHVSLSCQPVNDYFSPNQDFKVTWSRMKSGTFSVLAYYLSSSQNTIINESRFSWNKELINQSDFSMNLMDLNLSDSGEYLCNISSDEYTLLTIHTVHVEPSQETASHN

[6] = target: T6, CTLA4 (ELISA coat) (human, UniProt P16410 36-162, limits assumed); assay: ELISA, plate coated with CTLA4
T6 construct: Species read from the list 'human VISTA, PD-1, PD-L1, ...'
T6 sequence (P16410 36-162 limits assumed): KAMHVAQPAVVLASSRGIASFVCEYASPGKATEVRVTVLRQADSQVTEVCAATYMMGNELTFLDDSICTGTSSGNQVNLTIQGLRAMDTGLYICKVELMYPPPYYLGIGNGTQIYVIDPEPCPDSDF

[7] = target: T7, human PD-L1 (ELISA coat) (human, UniProt Q9NZQ7 19-239); assay: ELISA, plate coated with B7H1 (PDL1)
T7 sequence (Q9NZQ7 19-239 limits assumed): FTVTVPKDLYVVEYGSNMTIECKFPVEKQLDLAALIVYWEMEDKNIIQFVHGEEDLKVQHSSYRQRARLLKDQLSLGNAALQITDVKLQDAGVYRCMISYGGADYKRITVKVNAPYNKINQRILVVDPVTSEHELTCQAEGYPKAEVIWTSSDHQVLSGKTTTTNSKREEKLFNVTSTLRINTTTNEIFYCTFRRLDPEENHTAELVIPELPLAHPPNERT

[8] = target: T8, human VISTA polypeptide (ELISA coat) (human, UniProt Q9H7M9 33-194); assay: ELISA, plate coated with B7H5 (VISTA)
T8 construct: Recombinant protein (Sino Biological) coated on ELISA plates; construct not described

[9] = target: T1, PD-1 (ELISA coat); assay: ELISA, plate coated with PD1; remark: listed apart in the source
[10] = target: T2, B7H3 (ELISA coat); assay: ELISA, plate coated with B7H3; remark: listed apart in the source
[11] = target: T3, B7H4 (ELISA coat); assay: ELISA, plate coated with B7H4; remark: listed apart in the source
[12] = target: T4, B7H6 (ELISA coat); assay: ELISA, plate coated with B7H6; remark: listed apart in the source
[13] = target: T5, B7H7 (ELISA coat); assay: ELISA, plate coated with B7H7; remark: listed apart in the source
[14] = target: T6, CTLA4 (ELISA coat); assay: ELISA, plate coated with CTLA4; remark: listed apart in the source
[15] = target: T7, human PD-L1 (ELISA coat); assay: ELISA, plate coated with B7H1 (PDL1); remark: listed apart in the source
[16] = target: T1, PD-1 (ELISA coat); assay: ELISA, plate coated with PD1; remark: listed apart in the source
[17] = target: T2, B7H3 (ELISA coat); assay: ELISA, plate coated with B7H3; remark: listed apart in the source
[18] = target: T3, B7H4 (ELISA coat); assay: ELISA, plate coated with B7H4; remark: listed apart in the source
[19] = target: T4, B7H6 (ELISA coat); assay: ELISA, plate coated with B7H6; remark: listed apart in the source
[20] = target: T5, B7H7 (ELISA coat); assay: ELISA, plate coated with B7H7; remark: listed apart in the source
[21] = target: T6, CTLA4 (ELISA coat); assay: ELISA, plate coated with CTLA4; remark: listed apart in the source
[22] = target: T7, human PD-L1 (ELISA coat); assay: ELISA, plate coated with B7H1 (PDL1); remark: listed apart in the source

T1 sequence (Q15116 25-167 limits assumed): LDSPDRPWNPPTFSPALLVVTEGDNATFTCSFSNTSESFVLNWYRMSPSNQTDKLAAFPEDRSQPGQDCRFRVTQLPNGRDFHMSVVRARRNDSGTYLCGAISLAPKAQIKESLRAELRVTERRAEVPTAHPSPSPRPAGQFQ

B1: anti-VISTA clone V4-C28 IgG1 (antibody, V domains shown)
VH: QVQLQESGPGLVKPSDTLSLTCTVSGYSITSDYTWNWIRQTPGKGLEWIGHITYSGSVSYNPSLRSRVTISRDTSKNQFSLKLSSVTAADTATYSCARALYYPWYFDVWGTGTTVTVSS
VL: EIVLTQSPATLSLSPGERATLSCRASSSVGYIHWYQQKPGQAPRPLIYATSYRATGIPARFSGSGSGTDNTLTISSLEPEDSAVYYCQQWSSYPPITFGGGTKLEVKR
notes: Human IgG1/kappa
B1: no binding (tested: log -7.5 (about 3e-8 M)) [1]; no binding (tested: log -7.5 (about 3e-8 M)) [2]; no binding (tested: log -7.5 (about 3e-8 M)) [3]. B1: no binding (tested: log -7.5 (about 3e-8 M)) [4]; no binding (tested: log -7.5 (about 3e-8 M)) [5]; no binding (tested: log -7.5 (about 3e-8 M)) [6]. The binding result [7] was “no binding (tested: log -7.5 (about 3e-8 M))” and the “EC50 (read off the curve)” value [8] was roughly 0.02 nM.

B2: anti-VISTA clone V4-C31 IgG1 (antibody, V domains shown)
VH: QVQLQESGPGLVKPSDTLSLTCTVSGYSITSDYTWNWIRQTPGKGLEWIGHITYSGSVSYNPSLRSRVTISRDTSKNQFSLKLSSVTAADTATYSCARALYYPWYFDVWGTGTTVTVSS
VL: EIVLTQSPATLSLSPGERATLSCRASSSVGYIHWYQQKPGQAPRPLIYATYYRTTGIPARFSGSGSGTDNTLTISSLEPEDSAVYYCQQWSSYPPITFGGGTKLEVKR
notes: Human IgG1/kappa
B2: no binding (tested: log -7.5 (about 3e-8 M)) [9]; no binding (tested: log -7.5 (about 3e-8 M)) [10]; no binding (tested: log -7.5 (about 3e-8 M)) [11]. B2: no binding (tested: log -7.5 (about 3e-8 M)) [12]; no binding (tested: log -7.5 (about 3e-8 M)) [13]; no binding (tested: log -7.5 (about 3e-8 M)) [14]. B2: no binding (tested: log -7.5 (about 3e-8 M)) [15].

B3: anti-VISTA clone V4-C30 IgG1 (antibody, V domains shown)
VH: QVQLQESGPGLVKPSDTLSLTCTVSGYSITSDYTWNWIRQTPGKGLEWIGHITYSGSVSYNPSLRSRVTISRDTSKNQFSLKLSSVTAADTATYSCARALYYPWYFDVWGTGTTVTVSS
VL: EIVLTQSPATLSLSPGERATLSCRASSSVGYIHWYQQKPGQAPRPLIYATYYRATGIPARFSGSGSGTDNTLTISSLEPEDSAVYYCQQWSSYPPITFGGGTKLEVKR
notes: Human IgG1/kappa
B3: no binding (tested: log -7.5 (about 3e-8 M)) [16]; no binding (tested: log -7.5 (about 3e-8 M)) [17]; no binding (tested: log -7.5 (about 3e-8 M)) [18]. B3: no binding (tested: log -7.5 (about 3e-8 M)) [19]; no binding (tested: log -7.5 (about 3e-8 M)) [20]; no binding (tested: log -7.5 (about 3e-8 M)) [21]. B3: no binding (tested: log -7.5 (about 3e-8 M)) [22].
